Data on six substances can be found in US20060110789A1, “Methods to mediate polyketide synthase module effectiveness” (priority 2002, published 2006).

What is called Kd is the concentration at which binding is half-saturated.

The target of assay [1] is (3)M5+TE (module 5 of DEBS with the N-terminal linker of module 3, fused to thioesterase) (UniProt Q03133). The assay is described as follows: cell-based or functional assay.
The target in assay [2] is (5)M5+TE (module 5 of DEBS with its own N-terminal linker, fused to thioesterase) (UniProt Q03133). The assay is described as follows: cell-based or functional assay.
The target of assay [3] is (5)M6+TE (module 6 of DEBS with the N-terminal linker of module 5, with thioesterase) (UniProt Q03133). The assay is described as follows: cell-based or functional assay.
Assay [4] has as its target (5)M2+TE (module 2 of DEBS with the N-terminal linker of module 5, fused to thioesterase) (UniProt Q03131). The assay is described as follows: cell-based or functional assay.
In assay [5] the target is (5)M3+TE (module 3 of DEBS with the N-terminal linker of module 5, fused to thioesterase) (UniProt Q03132). The assay is described as follows: estimated from the saturation curve of the rate of tetraketide formation against (5)M3+TE concentration at fixed 0.5 µM M2(4) (kinetic, in solution).
For assay [6], the target named is M3+TE (module 3 of DEBS with its own N-terminal linker, fused to thioesterase) (UniProt Q03132). The assay is described as follows: estimated from the saturation curve of the rate of tetraketide formation against M3+TE concentration at fixed M2 (kinetic, in solution).

Where only a bound is given, the exact number is not on record here.

In the case of “diketide-ACP4(4) (DEBS ACP4 with its natural C-terminal linker, loaded with diketide) (from UniProt Q03132 3398-3567)”, the k60 µM, fold decrease against the matched reaction (FIG. 28 B) in assay [1] came to 20 fold. In assay [2], this substance yielded a maximal rate of elongation of 4a, fold increase against the NAC thioester 2a of over 40 fold. Substance “diketide-ACP2(4) (DEBS ACP2 with the C-terminal linker of module 4, loaded with diketide) (from UniProt Q03131 3320-3408; Q03132 3489-3567)” gave a k60 µM, fold decrease against the matched reaction (FIG. 28 C) in assay [2] of 20 fold. As for “diketide-ACP4(Ø) (DEBS ACP4 without linker, loaded with diketide) (from UniProt Q03132 3398-3488)”, the k60 µM (FIG. 29 B) in assay [1] turned out to be 0.27 min⁻¹. In addition, the k60 µM, fold decrease against diketide-ACP4(4) with the same module in assay [3] and in assay [4] was 10 fold in each case. The k60 µM (FIG. 29 A) in assay [2] was 0.49 min⁻¹. For the substance “diketide-NovH(4) (NovH fused to the C-terminal linker of DEBS module 4, loaded with diketide) (from UniProt Q03132 3489-3567)”, the k60 µM in assay [3] stood at 0.53 min⁻¹.

With “M2(4) (module 2 of DEBS with the C-terminal linker of module 4) (from UniProt Q03131 1982-3404; Q03132 3489-3567) (enzyme)”, in assay [5], the dissociation constant Kd is 2.1 µM. As for “M2 (module 2 of DEBS with its natural C-terminal linker) (from UniProt Q03131 1982-3404; Q03131 3408-3491) (enzyme)”, the Kd in assay [6] is 1.1 µM.
